Legend:
[1] = biological target: Y0317-570 Fab; experiment: BIAcore, 1:1 Langmuir model: Herceptin dissociating from Y0317-570 Fab held on immobilized VEGF
[2] = biological target: Y0317-570 Fab; experiment: BIAcore; estimated from the observed koff with an assumed kon

## 4D5-IgG, also known as Herceptin® (antibody)
[1]
  dissociation half-life (t1/2): 8.5 min
[2]
  Kd: 30 to 300 nM

— patent EP1757701A1
